For data set [1], the target named is T1, FANCD2 WT;FANCI WT (Gallus gallus;Gallus gallus, UniProt Q68Y81;B0I564 1-1439;1-1338, |). The data set is described as follows: cryo-EM; stalled state; 24 bp duplex modelled; EMSA: 50 mM HEPES pH 8.0, 75 mM NaCl, 1 mM TCEP, 20 nM DNA, 20-22 C; switchSENSE: 20 mM HEPES pH 8.0, 75 mM NaCl, 1 mM TCEP, 25 C; cryo-EM and single-molecule:
The settings on record: protein: recombinant;recombinant; copies: 1;1; 29 bp duplex; strand 1 has 5' ssDNA 30 nt and 3' ssDNA 40 nt.

In data set [2] the target is T1, FANCD2 WT;FANCI WT. Nature of the data set: EMSA; unlabelled D2-I; EMSA: 50 mM HEPES pH 8.0, 75 mM NaCl, 1 mM TCEP, 20 nM DNA, 20-22 C; switchSENSE: 20 mM HEPES pH 8.0, 75 mM NaCl, 1 mM TCEP, 25 C; cryo-EM and single-molecule:
The settings on record: protein: recombinant;recombinant; copies: 1;1; label: 3' FAM on P1; blunt. In general terms: A gel shift assay detects complexes by their altered migration in electrophoresis.

Data set [3] has as its target FANCD2-ybbR-Cy3;FANCI-ybbR-Cy5 (Gallus gallus;Gallus gallus, UniProt Q68Y81;B0I564 1-1439;1-1338, |). Nature of the data set: EMSA; double-labelled D2-I, affinity comparable to unlabelled; EMSA: 50 mM HEPES pH 8.0, 75 mM NaCl, 1 mM TCEP, 20 nM DNA, 20-22 C; switchSENSE: 20 mM HEPES pH 8.0, 75 mM NaCl, 1 mM TCEP, 25 C; cryo-EM and single-molecule:
Particulars: protein: recombinant;recombinant; copies: 1;1; label: 3' FAM on P1; blunt.

T1 sequence (Q68Y81 whole entry, chain 1 of 2): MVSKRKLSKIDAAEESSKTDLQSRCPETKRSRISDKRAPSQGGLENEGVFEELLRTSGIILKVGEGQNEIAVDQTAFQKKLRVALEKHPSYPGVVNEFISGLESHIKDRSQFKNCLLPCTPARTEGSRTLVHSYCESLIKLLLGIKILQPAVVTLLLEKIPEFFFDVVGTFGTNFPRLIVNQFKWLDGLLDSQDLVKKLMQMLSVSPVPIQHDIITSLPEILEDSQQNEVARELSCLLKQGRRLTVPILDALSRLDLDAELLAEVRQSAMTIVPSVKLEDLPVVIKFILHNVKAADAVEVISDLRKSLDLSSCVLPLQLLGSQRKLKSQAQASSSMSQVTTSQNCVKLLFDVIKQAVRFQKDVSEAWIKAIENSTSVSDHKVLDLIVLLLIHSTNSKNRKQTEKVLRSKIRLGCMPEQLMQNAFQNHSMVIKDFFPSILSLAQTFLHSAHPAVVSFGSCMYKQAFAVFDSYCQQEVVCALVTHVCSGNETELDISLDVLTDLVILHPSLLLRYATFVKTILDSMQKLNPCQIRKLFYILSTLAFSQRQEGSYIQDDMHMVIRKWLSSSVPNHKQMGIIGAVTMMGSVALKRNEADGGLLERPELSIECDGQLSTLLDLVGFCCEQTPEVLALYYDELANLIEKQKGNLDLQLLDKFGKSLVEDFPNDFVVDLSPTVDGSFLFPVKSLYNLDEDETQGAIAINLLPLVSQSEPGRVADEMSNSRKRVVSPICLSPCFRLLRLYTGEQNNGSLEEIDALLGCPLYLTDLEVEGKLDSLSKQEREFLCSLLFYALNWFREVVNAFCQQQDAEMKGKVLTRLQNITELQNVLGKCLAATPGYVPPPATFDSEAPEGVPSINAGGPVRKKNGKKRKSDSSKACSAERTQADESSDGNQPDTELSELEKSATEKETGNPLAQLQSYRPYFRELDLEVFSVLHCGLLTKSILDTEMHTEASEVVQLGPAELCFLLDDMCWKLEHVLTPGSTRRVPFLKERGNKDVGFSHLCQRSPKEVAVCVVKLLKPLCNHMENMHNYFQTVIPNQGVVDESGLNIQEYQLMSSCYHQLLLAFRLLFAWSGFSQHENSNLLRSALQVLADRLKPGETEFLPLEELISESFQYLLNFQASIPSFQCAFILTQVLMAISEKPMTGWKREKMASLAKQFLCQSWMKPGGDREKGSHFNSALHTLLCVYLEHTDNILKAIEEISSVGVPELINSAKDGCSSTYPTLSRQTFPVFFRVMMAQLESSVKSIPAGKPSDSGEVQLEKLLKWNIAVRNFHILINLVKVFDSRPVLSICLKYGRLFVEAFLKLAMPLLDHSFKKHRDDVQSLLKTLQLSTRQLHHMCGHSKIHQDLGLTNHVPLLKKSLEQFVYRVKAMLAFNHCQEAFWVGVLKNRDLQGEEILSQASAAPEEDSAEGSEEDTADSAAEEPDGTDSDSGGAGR
T1 sequence (B0I564 whole entry, chain 2 of 2): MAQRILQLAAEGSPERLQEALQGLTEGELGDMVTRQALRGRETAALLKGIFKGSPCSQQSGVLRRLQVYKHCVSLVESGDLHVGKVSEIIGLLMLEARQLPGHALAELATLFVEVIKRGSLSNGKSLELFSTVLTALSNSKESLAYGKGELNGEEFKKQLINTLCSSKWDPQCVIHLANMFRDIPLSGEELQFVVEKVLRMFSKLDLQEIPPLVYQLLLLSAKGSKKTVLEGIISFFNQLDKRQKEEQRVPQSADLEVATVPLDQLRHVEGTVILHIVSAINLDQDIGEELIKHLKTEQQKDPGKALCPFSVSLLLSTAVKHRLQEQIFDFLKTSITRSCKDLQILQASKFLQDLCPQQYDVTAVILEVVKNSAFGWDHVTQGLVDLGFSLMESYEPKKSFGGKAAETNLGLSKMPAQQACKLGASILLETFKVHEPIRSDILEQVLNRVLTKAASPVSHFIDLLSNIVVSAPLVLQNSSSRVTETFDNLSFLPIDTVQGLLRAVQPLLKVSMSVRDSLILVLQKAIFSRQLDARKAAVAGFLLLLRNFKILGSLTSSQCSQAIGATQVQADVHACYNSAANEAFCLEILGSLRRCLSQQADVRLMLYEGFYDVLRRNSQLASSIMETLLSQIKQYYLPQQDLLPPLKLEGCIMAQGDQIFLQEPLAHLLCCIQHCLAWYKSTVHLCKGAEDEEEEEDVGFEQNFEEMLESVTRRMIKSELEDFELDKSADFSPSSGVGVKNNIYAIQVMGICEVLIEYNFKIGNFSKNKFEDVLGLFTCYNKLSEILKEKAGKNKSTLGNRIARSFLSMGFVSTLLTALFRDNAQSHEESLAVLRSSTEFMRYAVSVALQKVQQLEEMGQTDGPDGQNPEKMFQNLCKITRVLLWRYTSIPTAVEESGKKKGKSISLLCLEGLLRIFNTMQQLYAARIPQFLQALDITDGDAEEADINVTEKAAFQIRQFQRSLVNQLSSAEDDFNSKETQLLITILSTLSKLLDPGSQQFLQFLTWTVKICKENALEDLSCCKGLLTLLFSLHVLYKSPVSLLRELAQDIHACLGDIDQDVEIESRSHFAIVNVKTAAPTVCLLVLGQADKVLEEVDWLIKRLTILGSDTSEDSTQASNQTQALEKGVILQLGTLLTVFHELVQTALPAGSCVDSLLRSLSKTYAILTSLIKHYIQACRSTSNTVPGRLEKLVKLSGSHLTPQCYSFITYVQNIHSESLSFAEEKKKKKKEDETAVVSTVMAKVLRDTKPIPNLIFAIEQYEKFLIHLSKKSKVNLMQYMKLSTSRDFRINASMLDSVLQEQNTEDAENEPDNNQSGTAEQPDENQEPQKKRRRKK
Chain of FANCD2-ybbR-Cy3;FANCI-ybbR-Cy5 (Q68Y81 whole entry, chain 1 of 2): as the sequence (Q68Y81 whole entry, chain 1 of 2) above
Chain of FANCD2-ybbR-Cy3;FANCI-ybbR-Cy5 (B0I564 whole entry, chain 2 of 2): as the sequence (B0I564 whole entry, chain 2 of 2) above

B1: ss-dsDNA J1/J2 (mixed)
DNA 1: TTTTTTTTTTTTTTTTTTTTTTTTTTTTTTATCGATGTCTCTAGACAGCTGCTCAGGATTGATCTGTAATTTTTTTTTTTTTTTTTTTTTTTTTTTTTT
DNA 2: ATCCTGAGCAGCTGTCTAGAGACATCGAT
Consider B1, for which the binding result in the data set with FANCD2 WT;FANCI WT [1] is recorded as “binds”.

B2: 44 bp dsDNA P1/P7 (FAM) (dsDNA)
DNA 1: ATCGATGTCTCTAGACAGCTGCTCAGGATTGATCTGTAATGGCC
DNA 2: GGCCATTACAGATCAATCCTGAGCAGCTGTCTAGAGACATCGAT
For B2, the binding result (with FANCD2 WT;FANCI WT [2]; in data set [3]) was “binds” throughout.

Values taken from paper PMC11358013, “FANCD2–FANCI surveys DNA and recognizes double- to single-stranded junctions”.
